Assay results published in patent US7732178B2, “Laccase enzymes and their uses” (AB Enzymes Oy, priority 2004, dated 2010).
“Also recorded” adds a separate entry of the source.

B1: TaLcc2: Thielavia arenaria ALKO 4197 laccase, SEQ ID NO: 41, produced in Trichoderma reesei (protein)
chain: MLTETLKSRNMLQSILALLATALGSSAFAIPELPEVSLQPRQACENTATSRQCWGDLSIDTNYYEVLPSTGRPPQEYWLSVVEGPCAPDGYNRTCMTFNGTVPGPTLFADWGDELVIHVTNNMVNNGTAIHWHGIRMLNNTLNDGVPGVTQCAIAPGESMTYRFNVTQYGSTWYHSHFSLQYAEGLFGGMILRGPSTANWDEDLGVLFLQDWSHVEAFTRWHEAKAGFPPSLDGGLINGTNTFDCSTLSPTDPKCTGNGKKFETVFEPGKKYLIRLINVAIDGVFQFSIDGHSLTVIATDLVPIVPYTTDSVQITIGQRYDIIVEANATPGNYWMRADWVTACVTNDHPEHMTGIVRYDASSIDPPTSESNVTKTSSCLGEPNEKTIPHLSLDVTNIGGTNVEELSFDTTSGDYFQWTLNTSSLVLDWGNPTMARIFNGDAIFPTEYNVVAVNKTGTGPEWTVLVIQDQSNLPIAHPIHLHGHDFWVLAAEEGVFNGNISSFNTRNPARRDVATLPGRGYLAIAFQIDNPGTWLTHCHIAWHASQGLSLEFVESQSEIVTDEVSRGVFNDVCASWRAHDPLWEQEDSGI
modifications: Thielavia arenaria ALKO4197; (1)..(589) Deduced amino acid sequence of Thielavia arenaria ALKO4197 TaLacc2
B2: CtLcc1: Chaetomium thermophilum ALKO 4265 laccase, SEQ ID NO: 47, produced in Trichoderma reesei (protein)
chain: MKFLTYATALLGALTAVVGAIPTRSGTKKKYIRDGPGPCHTPSNRACWAPGFDINTDYEVNTPNTGVTRNYTLTLTEEDNWTGPDGVVKEKIMLVNGKTLGPTIEANWGDWIEVKVINNLLTNGTSIHWHGIHQKGSNLHDGANGVTECPIPPNGGQRTYRFRAQQYGTSWYHSHFSAQYGNGIVGPIVIHGPASLPYDIDLGPFPLTDYYYKSADELVRHTQNNGPPFSDNVLFNGTGVHPQTGHGQYAKVTLTPGKRHRLRIINMSTENHFQVSLVGHQFTVIAADMVPVHSYTTDSLFLAVGQRYDVTIDASQTPGNYWFNVTFGGGFACGGSFNPNPAAIFHYEGAPDALPTDPGVPPRDHNCLDTLDLVPVVPRNVQVNQFVKKPENTLPVELSLGGTPLFVWKVNGSAIDVDWGNPVLQYVMDRNTSYRQADNIVEVNGVNQWTYWLIENDPNGAFSLPHPMHLHGHDFLIVGRSPDVPPGSNQRYNFDPATDIYRLRGQNPTRRDVAMLPAGGWLLLAFLTDNPGAWLFHCHIAWHVSGGLSVDFLERPNDLRNSILQHDKDEFNRVCNEWRTYWPNSPHPKIDSGLKHRWVEESEWLVR
modifications: Chaetomium thermophilum ALKO4265; (1)..(607) Deduced amino acid sequence of Chaetomium thermophilum ALKO4265 CtLcc1

What was measured:
[1] = Specific activity towards guaiacol; type: biochemical; conditions: 25 mM MES buffer, pH 5.5
Experimental: Specific activities of the purified T. arenaria and C. thermophilum laccases were determined towards different laccase substrates.

[2] = Redox potential of T1 copper, photometric copper titration; type: physicochemical; conditions: 0.1 M KH2PO4 (pH 6.0)
Experimental: The purified recombinant Thielavia and Chaetomium laccases were characterized in terms of pH optimum, thermal stability, and pI as described in Example 2. The molecular weight was determined by MALDI-TOF mass spectrometry on a Ultraflex™ time-of-flight instrument (BrukerDaltonics, Germany) as previously described (Palonen et al., 2003). The redox-potentials of the T1 coppers of for CtLcc, and TaLcc2 laccases were determined by photometric copper titration in 0.1 M KH2PO4 (pH 6.0) as described by Xu et al. (1996) using the redox titrant couple K3Fe(CN)6/K4Fe(CN)6. The redox potential of TaLcc1 was determined with a combined Pt—AgCl/KCl microelectrode at pH 5.0 according to Sigoillot et al (2004). The characterization results are collected to Table 14.

[3] = Denim bleaching at different temperatures; parameters: key to After laccase treatment L* / After laccase treatment b* / Increase of L*: CIE L*a*b* colour coordinates (illuminant D65), reflectance; conditions: for decolorization of denim (increase of lightness) compared to Denilite II Base: 40-50 ° C. and pH 6; for After laccase treatment L* / After laccase treatment b* / Increase of L*: face side of denim, 30 min, pH 6, enzyme 200 nkat/g, mediator 10 mg/g
Experimental: Lee Cooper jeans (MASI Company Oy, Finland) that were desized and treated with neutral ECOSTONE® cellulase were used as test material. Laccase treatments were performed in LP-2 Launder Ometer as follows. About 10 g of denim swatches (15×14 cm) were loaded into 1.2 liter containers containing 200 ml Mc Ilvaine's citrate phosphate buffer pH 5, 6 or 7 and the containers were temperated. Enzyme with or without the mediator (methyl syringate, DeniLite II Assist, Novozymes) was added as laccase activity units. Enzyme was dosed 200 nkat/g and the mediator 10 mg/g on the weight of fabric. […] The Launder Ometer was run at 50° C. for 30 min and after that the temperature in Launder was raised to 80° C. for 10 min. The swatches were carefully rinsed with warm water, dried half-dry in a tumbler and after that air dried.
The bleaching effect was evaluated by measuring the colour as reflectance values with the Minolta Chromameter CM 1000 (Minolta Co.) using L*a*b* color space coordinates (illuminant D65). The colour from both sides of the swatches was measured before and after the laccase treatment. Each measurement was the average of several measurements.
The test system and denim were as in Example 7, except that the conditions during the laccase and mediator treatment in Launder were 30 min, pH 6 and temperature 30-70° C. (DeniLite II Base also at 80° C.) and the enzyme was inactivated by alkaline treatment instead of raising the temperature in Launder as follows. After removing swatches from the containers they were soaked in warm water containing NaOH (pH 11.5) for 10 min and rinsed carefully with warm water. The swatches were dried half-dry in a tumbler and after that air dried. The bleaching effect was evaluated by measuring the colour as reflectance values as in Example 7.

Decolorization of dyes [4] = assay: Decolorization of dyes; parameters: key to Decolorization of Cibacron Brilliant Red 3B-P, Time 30 min / Decolorization of Cibacron Brilliant Red 3B-P, Time 60 min: −: no visually detectable change; +: visually detectable fading of the colour; ++: considerable fading of the colour; +++: complete/almost complete decolorization; conditions: for Decolorization of Cibacron Brilliant Red 3B-P, Time 30 min / Decolorization of Cibacron Brilliant Red 3B-P, Time 60 min: dye 5 mg/50 ml, enzyme 100 nkat/50 ml, 50° C., pH 6; for decolorization of Cibacron Brilliant Red 3B-P: in the presence of the mediator
Experimental: (§1) The recombinant laccases CtLcc1, TaLcc2 and TaLcc4, derived from Trichoderma strains (Example 7) were tested for their ability to decolorize different dyes in the presence of the methyl syringate mediator (Example 7) or without it. The experiments were carried out in 100 ml shake flasks containing 50 ml of dye dissolved in citrate phosphate buffer pH 6. Dye concentration 5 mg/50 ml was used. Enzyme was dosed 100 nkat per 50 ml and the mediator 5 mg per 50 ml. Control samples contained only dye solution. The shake flasks were incubated at 50° C. for 30, 60 and 120 minutes. Samples of 3.5 ml were taken in test tubes for visual evaluation.

Decolorization of dyes [5] = assay: Decolorization of dyes; parameters: key to Decolorization of Remazol Brilliant blue, Time 30 min / Decolorization of Remazol Brilliant blue, Time 60 min: −: no visually detectable change; +: visually detectable fading of the colour; ++: considerable fading of the colour; +++: complete/almost complete decolorization; conditions: for Decolorization of Remazol Brilliant blue, Time 30 min / Decolorization of Remazol Brilliant blue, Time 60 min: dye 5 mg/50 ml, enzyme 100 nkat/50 ml, 50° C., pH 6; for decolorization of Remazol Brilliant Blue: in the presence of the mediator
Experimental: as §1

Decolorization of dyes [6] = assay: Decolorization of dyes; parameters: key to Decolorization of Indigocarmine, Time 30 min / Decolorization of Indigocarmine, Time 60 min: −: no visually detectable change; +: visually detectable fading of the colour; ++: considerable fading of the colour; +++: complete/almost complete decolorization; conditions: for Decolorization of Indigocarmine, Time 30 min / Decolorization of Indigocarmine, Time 60 min: dye 5 mg/50 ml, enzyme 100 nkat/50 ml, 50° C., pH 6; for decolorization of Indigocarmine: in the presence of the mediator
Experimental: as §1

Row | Molecule | Specific activity on guaiacol [1] [nkat/mg] | E^0 [2] [mV] | decolorization of denim (increase of lightness) compared to Denilite II Base [3] | After laccase treatment L* ([3]; 30° C.) | After laccase treatment b* ([3]; 30° C.) | Increase of L* ([3]; 30° C.) | After laccase treatment L* ([3]; 40° C.) | After laccase treatment b* ([3]; 40° C.) | Increase of L* ([3]; 40° C.) | After laccase treatment L* ([3]; 50° C., alkaline inactivation) | After laccase treatment b* ([3]; 50° C., alkaline inactivation) | Increase of L* ([3]; 50° C., alkaline inactivation) | After laccase treatment L* ([3]; 60° C.) | After laccase treatment b* ([3]; 60° C.) | Increase of L* ([3]; 60° C.) | After laccase treatment L* ([3]; 70° C.) | After laccase treatment b* ([3]; 70° C.) | Increase of L* ([3]; 70° C.) | decolorization of Cibacron Brilliant Red 3B-P (Decolorization of dyes [4]) | decolorization of Remazol Brilliant Blue (Decolorization of dyes [5]) | further results
1 | B1 | 40 | 450 | more efficient | 33.99 | −19.33 | 4.45 | 37.08 | −18.53 | 8.15 | 37.47 | −18.48 | 9.00 | 36.07 | −18.26 | 6.82 | 32.84 | −17.94 | 4.54 | partly decolorized | very effectively; also recorded: to great extend or completely | Decolorization of Cibacron Brilliant Red 3B-P, Time 30 min (Decolorization of dyes [4]; Table 24, mediator 0 mg/50 ml): −; Decolorization of Cibacron Brilliant Red 3B-P, Time 60 min (Decolorization of dyes [4]; Table 24, mediator 0 mg/50 ml): −; Decolorization of Cibacron Brilliant Red 3B-P, Time 30 min (Decolorization of dyes [4]; Table 24, mediator 5 mg/50 ml): +; Decolorization of Cibacron Brilliant Red 3B-P, Time 60 min (Decolorization of dyes [4]; Table 24, mediator 5 mg/50 ml): +; Decolorization of Remazol Brilliant blue, Time 30 min (Decolorization of dyes [5]; Table 24, mediator 0 mg/50 ml): −; Decolorization of Remazol Brilliant blue, Time 60 min (Decolorization of dyes [5]; Table 24, mediator 0 mg/50 ml): −; Decolorization of Remazol Brilliant blue, Time 30 min (Decolorization of dyes [5]; Table 24, mediator 5 mg/50 ml): ++; Decolorization of Remazol Brilliant blue, Time 60 min (Decolorization of dyes [5]; Table 24, mediator 5 mg/50 ml): +++; Decolorization of Indigocarmine, Time 30 min (Decolorization of dyes [6]; Table 24, mediator 0 mg/50 ml): −; Decolorization of Indigocarmine, Time 60 min (Decolorization of dyes [6]; Table 24, mediator 0 mg/50 ml): −; Decolorization of Indigocarmine, Time 30 min (Decolorization of dyes [6]; Table 24, mediator 5 mg/50 ml): +++; Decolorization of Indigocarmine, Time 60 min (Decolorization of dyes [6]; Table 24, mediator 5 mg/50 ml): +++; decolorization of Indigocarmine (Decolorization of dyes [6]): very effectively; also recorded: to great extend or completely
2 | B2 | 85 | 480 | more efficient | 31.78 | −19.15 | 2.44 | 34.43 | −18.77 | 5.72 | 36.78 | −18.96 | 8.26 | 37.40 | −18.29 | 8.52 | 34.16 | −17.91 | 5.23 | partly decolorized | very effectively; also recorded: to great extend or completely | Decolorization of Cibacron Brilliant Red 3B-P, Time 30 min (Decolorization of dyes [4]; mediator 0 mg/50 ml): −; Decolorization of Cibacron Brilliant Red 3B-P, Time 60 min (Decolorization of dyes [4]; mediator 0 mg/50 ml): −; Decolorization of Cibacron Brilliant Red 3B-P, Time 30 min (Decolorization of dyes [4]; mediator 5 mg/50 ml): +; Decolorization of Cibacron Brilliant Red 3B-P, Time 60 min (Decolorization of dyes [4]; mediator 5 mg/50 ml): +; Decolorization of Remazol Brilliant blue, Time 30 min (Decolorization of dyes [5]; mediator 0 mg/50 ml): −; Decolorization of Remazol Brilliant blue, Time 60 min (Decolorization of dyes [5]; mediator 0 mg/50 ml): −; Decolorization of Remazol Brilliant blue, Time 30 min (Decolorization of dyes [5]; mediator 5 mg/50 ml): ++; Decolorization of Remazol Brilliant blue, Time 60 min (Decolorization of dyes [5]; mediator 5 mg/50 ml): +++; Decolorization of Indigocarmine, Time 30 min (Decolorization of dyes [6]; mediator 0 mg/50 ml): −; Decolorization of Indigocarmine, Time 60 min (Decolorization of dyes [6]; mediator 0 mg/50 ml): −; Decolorization of Indigocarmine, Time 30 min (Decolorization of dyes [6]; mediator 5 mg/50 ml): +++; Decolorization of Indigocarmine, Time 60 min (Decolorization of dyes [6]; mediator 5 mg/50 ml): +++; decolorization of Indigocarmine (Decolorization of dyes [6]): very effectively; also recorded: to great extend or completely
